From the supplement of paper PMC9732359
± gives the uncertainty stated by the source.

experiment: protein stability index of a GFP-peptide fusion (yeast GPS) (PSI 1-4); higher = more stable; sorted into four equal gates, so the index is relative within each strain; details: doa10∆
In short: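 Each library plasmid carries Cherry plus GFP with a tiled 17-residue yeast protein peptide fused downstream, and the pooled library was carried in yeast. Mid-log cultures in leucine-free medium were sorted into four equal gates by GFP/Cherry ratio. Reads from Illumina sequencing of PCR-amplified plasmids from each gate were assigned to strains by barcodes. Per peptide, the protein stability index was computed as the summed products of gate read frequency and gate number.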

Row | Sequence | protein stability index
1 | DLAERASELDESKDSIQ [SMC3] | 3.06 ± 0.093

same assay, conditions: pdr5∆

Row | Sequence | protein stability index
2 | ATGHRVLIFFQMTQIMD [SNF2] | 2.51 ± 0.069
3 | ATGNESQDATKVDATPE [YLR335W/NUP2] | 3.22 ± 0.082
4 | ATHLPKDNVEHLVMRAI [RPN9] | 3.09 ± 0.07
5 | ATPQEAQFYLGKRIAYV [RPL33B] | 2.2 ± 0.068
6 | ATSKTSEMLAKYSDILL [CDC53] | 3.18 ± 0.099
7 | ATTQDQVASIIESFVEL [NUT2] | 2.65 ± 0.076
8 | ATYSNEFKCMSVITAQQ [YGL100W/SEH1] | 1.48 ± 0.042
9 | AVALAASDLVLIVIDVV [SNU114] | 2.5 ± 0.06
10 | AVAVGNVEMEEDVLVNQ [RPL1A] | 2.17 ± 0.075
11 | AVDKVISGYKKFSSTSR [RPT1] | 3.87 ± 0.23
12 | AVHVTVRGPKAEEILER [RPL11A] | 2.98 ± 0.094
13 | AVINIRDDGKRELLVEG [RPO31] | 3.06 ± 0.22
14 | AVKNKYNVGKQLSNEII [PRP28] | 2.52 ± 0.074
15 | AVKYGLNHVVSLIENKK [RPL8B] | 2.37 ± 0.077
16 | AVPLQIVSPQSNKPCMG [RPO21] | 1.71 ± 0.038
17 | AVPRDELGRSNYGMIAI [FAS1] | 3.16 ± 0.15
18 | AVRLILPGELAKHAVSE [HTB1] | 2.98 ± 0.064
19 | AWRTLVGVSHTNEEVRN [CYT1] | 2.98 ± 0.13
20 | AYKFEEVSKDLIAVYYS [RPB8] | 3.14 ± 0.067
21 | AYRTDVIQALGGIETIL [PRP8] | 1.54 ± 0.066
22 | CAECSSKLSLSRTDAVR [RPC10] | 2.16 ± 0.047
23 | CAEGIFVVKLDTVDRLI [GAL11] | 3.13 ± 0.11
24 | CAINSKSRGSDLQYLGE [RRP6] | 3.18 ± 0.068
25 | CANCVKERIVRAFLIEE [RPL34B] | 3.47 ± 0.26
26 | CDSYLDADKELSFEINV [BRR2] | 2.73 ± 0.062
27 | CEAAVEISKKDFVRKGG [SIR3] | 2.9 ± 0.065

Row | Sequence | protein stability index
28 | CELLKLTNEDPPGLMYL [SSN2] | 3.06 ± 0.19
29 | CELQVETYGSMEMSEKI [RPN5] | 2.96 ± 0.074
30 | CESCSTVLCTPTGGKAK [RPS27B] | 2.5 ± 0.056
31 | CGAGVFLANHKDRLYCG [RPS31] | 1.46 ± 0.16
32 | CGAWEPAITIEKLKQFS [SIR3] | 1.76 ± 0.079
33 | CGFWQPAWRVWLNFLRG [PRP8] | 2.87 ± 0.12
34 | CHDELKALPMLEQVEFE [MED4] | 3.12 ± 0.3
35 | CILRFLQLPIEDKFLYG [SWI3] | 1.72 ± 0.085
36 | CKDDVQLQKILESLKPI [MTW1] | 2.94 ± 0.089
37 | CKEVGITAVHVKIRATG [RPS14A] | 1.82 ± 0.039
38 | CKLFLADVFTDDDLFET [YCG1] | 3.06 ± 0.051
39 | CKSLISENEDTKDLLSK [CSE2] | 3.21 ± 0.093
40 | CKVVAEMIRGRSPEEIR [SKP1] | 1.95 ± 0.15
41 | CLEDPEKPFNENRFQDT [POP4] | 3.02 ± 0.16
42 | CLFENDLQRLKPLGLDR [ITC1] | 3.19 ± 0.11
43 | CSFITQDKMFVSNPIRK [FAS1] | 1.3 ± 0.073
44 | CSRIIKIDKPIRTQVNT [RGR1] | 2.31 ± 0.047
45 | CTLTADGAYALSASWDK [ASC1] | 3.25 ± 0.051
46 | CVKAIEALFQSRPDILS [YCG1] | 2.47 ± 0.085
47 | CVQLIKCLVEKSICFEN [SWI1] | 2.61 ± 0.25
48 | CVRVQLIKNGKKVTAFV [RPS23A] | 2.66 ± 0.093
49 | CVVSTDSTNLSDDAAQF [ECM29] | 2.6 ± 0.075
50 | CVYVPNFNASLQLTTNT [SNM1] | 2.71 ± 0.047
51 | CYFRDFEYCRIDGSTSH [ISW2] | 2.5 ± 0.079
52 | CYVGLLTAIPILLEPIY [SNU114] | 1.23 ± 0.035
53 | DACPLDNQPWQLARCGR [HRT1] | 2.56 ± 0.067

Row | Sequence | protein stability index
54 | DADEKSSNLYETIIEAD [YJR042W/NUP85] | 2.95 ± 0.061
55 | DADGDIDMGEDKENVPV [DPB4] | 3.29 ± 0.13
56 | DALQDVEESSEKKQKTE [DPB4] | 3.42 ± 0.076
57 | DANRNANNIVNIVSDAG [GRR1] | 3.06 ± 0.059
58 | DATFAGHSLGEYAALAS [FAS1] | 3 ± 0.08
59 | DCENFFNYVQECPAIPI [YJL039C/NUP192] | 2.93 ± 0.064
60 | DDDAVRREVQIQLQEFL [NSL1] | 3.27 ± 0.1
61 | DDDDNNESSSNTTVISD [DIS3] | 3.24 ± 0.081
62 | DDDKKPDDDKIVPLTEG [RPT1] | 3.29 ± 0.11
63 | DDDLFETLVLSYFSPIN [YCG1] | 1.44 ± 0.05
64 | DDDNSNVDYYNVAHRIK [SNF2] | 3.15 ± 0.044
65 | DDEEYDYNDVEVNSKKK [BRR2] | 3.18 ± 0.051
66 | DDFDMLFGENDTSTQAY [NUT1] | 3.37 ± 0.071
67 | DDFLSKKRKAGRPRGRP [SNF2] | 3.1 ± 0.12
68 | DDIINNDEPSHKKIKVA [SIR2] | 2.84 ± 0.037
69 | DDLERLKKIRAHRGIRH [RPS18A] | 1.31 ± 0.1
70 | DDRDHFGKKRLDLAGPL [RPB2] | 2.85 ± 0.16
71 | DDRYGYQLYTSNPSGNY [PRE9] | 2.97 ± 0.081
72 | DDSFSLLRIQMLLCVSY [PCI8] | 2.05 ± 0.045
73 | DDVRRAAVIALGFVLLR [RPN2] | 2.09 ± 0.075
74 | DDVVVLTGEAEIEQPVT [FAS1] | 3.27 ± 0.12
75 | DDYYKEIIGGGSKSASK [ISW2] | 3.09 ± 0.11
76 | DEEMLTSCTIPKAVVDH [GAL11] | 2.77 ± 0.076
77 | DEEMTISQKLHDSILHS [RRP43] | 2.74 ± 0.035
78 | DEEYPVKVKVSYQKLLK [PRP8] | 1.86 ± 0.078
79 | DEFYINVDKNLNEIKEH [RPN14] | 2.5 ± 0.054

Row | Sequence | protein stability index
80 | DEIDAALDFRNVSIVAN [SMC4] | 1.91 ± 0.05
81 | DEPDEQGNPKKRPGKLS [CYT1] | 3.45 ± 0.15
82 | DESTIKRIKPNTEITQK [ECM29] | 2.96 ± 0.053
83 | DFDDSTAQEINFKMLVL [IRR1] | 2.66 ± 0.053
84 | DFDLLNKTLTFETETEV [FAS1] | 3.37 ± 0.067
85 | DFIDTATRHVLMRQGVL [RPS3] | 3.06 ± 0.059
86 | DFIKFDQIAVCEISGSI [BRN1] | 2.4 ± 0.12
87 | DFREKALYIAMMTRRVV [RET1] | 1.58 ± 0.12
88 | DFSARTVISGDPNLELD [RPO21] | 2.79 ± 0.21
89 | DFYVVMNRPGARVTRRK [RPL11A] | 2.86 ± 0.15
90 | DGEGKVDSISLHKIFYK [YCG1] | 3.24 ± 0.064
91 | DGGLFTLFVRDQDSAVV [QCR2] | 3.16 ± 0.078
92 | DGHLQFLNDVIPTTKNL [DLS1] | 3.05 ± 0.068
93 | DGSQQNLQQDKTNFQDV [REC8] | 3.38 ± 0.054
94 | DHKRFIVFHNEFSEHTF [DIS3] | 2.92 ± 0.048
95 | DIFSNLSSDDLLGKESF [YCS4] | 2.24 ± 0.05
96 | DILQITKKPLMVKNVKP [SIR4] | 2.72 ± 0.049
97 | DILSQILYGLVDKGAIM [YJL039C/NUP192] | 2.87 ± 0.25
98 | DISATQLPKQLWRNFCR [ITC1] | 2.68 ± 0.048
99 | DIWSISKKRQAEKLVPL [YML031W/NDC1] | 2.78 ± 0.076
100 | DKDNAEKTLGKSLSKAI [RPN7] | 2.67 ± 0.21
101 | DKDSTKEVASLPNKSTI [FAS2] | 3.1 ± 0.12
102 | DKELRKTKFQYKFLDQN [YIL149C/MLP2] | 2.96 ± 0.075
